Patent US20170334973A1 (INTEGRATED BIOTHERAPEUTICS, published 2017)
Substitutions are numbered along the chain they refer to.

B1: FVM18 (antibody, V domains shown)
VH: QVQLVQSGAEVKRPGESLKISCKTSGYSFTNIWISWVRQMPGKGLEWLGSIYPGDSETKYNPSFQGHVTISADKSVTTTYLKWSSLKASDTATYYCVKGSETWGQGVLVTVSS
VL: NFMLTQPASLSASPGASASLTCTFSGGINVAGYHILWYQQKPGSPPRYLLRYKSDSEKDQGSGVPSRFSGSKDASANRGILRISGLQSEDEADYYCAIGHSSSGWVFGGGTRLTVL
B2: FVM01P (antibody, V domains shown)
VH: QVQLQESGPGLVKPSETLSLTCTVSGASISNYRWNWIRQPPGKGLEWIGEINGYSGSTNYNPSLKSRVTISKDASKNQFSLKLTSVTAADTAVYYCPIIGGFTLEWFDVWGPGVLVTVSS
VL: DVVLTQSPSSLSASVGDRVTITCRASQGIRNYLNWYQQKPRKAPKLLIYAASSLQSGVPSRFSGSGSGTEFTLTISSLQAEDFATYYCLQGYRTPFTFGPGTKLDIKR
B3: FVM29 (antibody, V domains shown)
VH: EVQLVQSGAEVKRPGESLKISCQTSGNSFTNNWISWVRQMPGKGLEWMGAIDPSDSETRYSPSFQGQVTISADKSINTAYLQWSSLKASDTATYYCVKGSETWGQGVLVTVSS
VL: QPVLTQPASLSASPGASASLTCTFSGGINVAGYNILWYQQKAGSPPRYLLRYKSDSTKDQGSGVPSRFSGSKDASANTGILRISGLQSEDEADYYCAIGHSSGWIFGGGTRLTVL
B4: FVM12 (antibody, V domains shown)
VH: B1 VH with Q1E, K19T, G26E, N31G, I32S, L48M, E57D, K59R, N61S, H67Q
VL: B3 VL with P14L, A42P, Y48F, T57D, K58N, D59V, R67H, A76T, I105V
B5: FVM07 (antibody, V domains shown)
VH: EVQLVQSGAEVKRPGESLTISCKTSGYSFTDSWIGWVRQMPGKGLEWMGSIYPGDSDTKYNPSFQGHVTISADKSISTTYLQWSSLKASDTATYYCVAREAYWGQGVLVTVSS
VL: B3 VL with N34H, L36F, A42P, T57D, D59G, W104V, I105L
B6: FVM13 (antibody, V domains shown)
VH: EVQLVQSGAEVKRPGESLKISCKTSGYTFTSSWISWVRQMPGKGLEWLGSIYPGDSDTRYNPSFQGHVTISADTSIITTHLQWSSLKASDTATYYCVKGSETWGQGVLVTVSS
VL: B3 VL with Q1K, V3M, A8T
B7: FVM10 (antibody, V domains shown)
VH: QVQLVQSGAEVKRPGESLKISCQTSGYSFTDSWVAWVRQMPGKGLEWLGSIYPGDSETKYNPSFQGHVTISADKSISTAYLQWSSLKASDTATYYCAKGSETWGQGLRVTVSS
VL: B3 VL with P2A, V3G, A42P, T57D
B8: FVM39 (antibody, V domains shown)
VH: B1 VH with Q1E, K19R, N31D, I32S
VL: B3 VL
B9: FVM08 (antibody, V domains shown)
VH: EVQLVQSGAEVKRPGESLTISCKTSGYSFTDSWVAWVRQMPGKGLEWMGSIYPGDSDTRYNPSFEGQVTISADKSISTTYLQWSSLRASDTATYYCVKGADDWGQGVLVTVSS
VL: B3 VL
B10: FVM27 (antibody, V domains shown)
VH: B3 VH with Q23K, N27Y, T30A, N31S, N32S, E57A, N77S
VL: B3 VL with T113I
B11: FVM36 (antibody, V domains shown)
VH: B1 VH with Q1E, K19T, N31D, I32N, L48M
VL: B3 VL with P2S
B12: FVM34 (antibody, V domains shown)
VH: B1 VH with Q1E, Q6E, K19T, N31D, I32S, I34V, L48M
VL: B3 VL with N34Y, L36H, A42P, T57D, D59H, I105V
B13: FVM42 (antibody, V domains shown)
VH: B1 VH with Q1E, Q6E, K19T, N31D, I32S, I34V, S35A, L48M
VL: B3 VL with P2T, L4V
B14: FVM06 (antibody, V domains shown)
VH: B3 VH with K19T, Q23K, N27Y, N32Y, K43E, E57D, I70M, N77T
VL: B3 VL
B15: FVM33 (antibody, V domains shown)
VH: B1 VH with G26R, N31S, I32S, S35G, E57D, K59R
VL: B3 VL
B16: FVM26 (antibody, V domains shown)
VH: B1 VH with K19R, S28T, N31D, I32Y, S35A, L48M, S85R
VL: B3 VL
B17: FVM35 (antibody, V domains shown)
VH: B1 VH with Q1E, K19T, N31S, I32Y, S35T
VL: B3 VL
B18: FVM22 (antibody, V domains shown)
VH: B7 VH with Q1E, K19T, Q23K, L107V, R108L
VL: B3 VL with Q1S, P2S, V3G
B19: FVM37 (antibody, V domains shown)
VH: B1 VH with S28R, N31S, I32S
VL: B3 VL with Q1S, P2S, V3E
B20: FVM38 (antibody, V domains shown)
VH: B1 VH with K19T, N31D, I32S, S35G, L48M, G49A, G54D
VL: B3 VL
B21: FVM31 (antibody, V domains shown)
VH: B1 VH with K19T, N31D, I32S, I34V, S35A, E57D, T58A, K59R, K74T
VL: B3 VL with Q1K, V3M
B22: FVM15 (antibody, V domains shown)
VH: B1 VH with K19R, S28T, N31D, I32Y, S35A, L48M, S85R
VL: B3 VL
B23: FVM41 (antibody, V domains shown)
VH: B1 VH with Q1E, N31D, I32T, L48M
VL: B3 VL with Q1E, P2T, L4V, W104V, I105L
B24: FVM16 (antibody, V domains shown)
VH: B1 VH with Q1E, K23R, N31S, I32T, S35N
VL: B3 VL with Q1K, V3M, I105V
B25: FVM40 (antibody, V domains shown)
VH: B1 VH with Q1E, K19T, N31D, I32S, L48M
VL: B3 VL with V3M
B26: FVM11 (antibody, V domains shown)
VH: B1 VH with Q1E, K19T, N31D, I32S, I34V, S35A
VL: B3 VL with Q1N, P2F, V3M
B27: FVM14 (antibody, V domains shown)
VH: B1 VH with Q1E, K23Q, N31S, I32T, S35T, V76I, T77S, K82Q, S84N
VL: B3 VL with P2A, L4V
B28: FVM05 (antibody, V domains shown)
VH: QVQLQESGPGLVKPSETLSLTCAVSGFSISSGYGWSWIRQPPGKGLEWIGYIGGSSGSTSYNPSLKSRVTLSADTSKNQFSLKLSSVTAADTAVYYCARRYSSYRSWFDVWGPGVLVTVSS
VL: SSGLTQPRSVSVSPGQTARITCGGDNIGSKSVHWYQQKPPQAPVLVIYADSERPSGIPERFSGSNSGNTATLTISGVEAGDEADYYCQVWDSSSDHWVFGGGTRLTVL

What was measured:
[1] = target: SUDV GPddmuc (Sudan virus (SUDV), UniProt Q66814 33-650); assay: ELISA
[2] = target: EBOV GPddmuc (Ebola virus (EBOV), UniProt Q05320 33-650); assay: ELISA
[3] = target: MARV GPddmuc (Marburg virus (MARV), UniProt P35253 19-648); assay: native ELISA

Binder	EC50 [1] [pM]	EC50 [2] [pM]	binding result [3]
B1	108	101	no binding
B2	47	57	no binding
B3	12800	–	no binding
B4	81	91	no binding
B5	491	119	no binding
B6	51	62	no binding
B7	82	79	no binding
B8	20	27	no binding
B9	48	461	no binding
B10	40	47	no binding
B11	–	–	no binding
B12	27	27	no binding
B13	–	–	no binding
B14	50	59	no binding
B15	40	40	no binding
B16	80	100	no binding
B17	33	33	no binding
B18	600	67	no binding
B19	33	47	no binding
B20	53	60	no binding
B21	93	107	no binding
B22	35	42	no binding
B23	53	47	no binding
B24	59	66	no binding
B25	33	40	no binding
B26	53	59	no binding
B27	77	86	no binding
B28	–	2670	no binding
